The chains are these.
T1: HSV UL42 (processivity factor of HSV DNA polymerase) (herpes simplex virus (HSV), UniProt P10226 1-488)
T1 sequence: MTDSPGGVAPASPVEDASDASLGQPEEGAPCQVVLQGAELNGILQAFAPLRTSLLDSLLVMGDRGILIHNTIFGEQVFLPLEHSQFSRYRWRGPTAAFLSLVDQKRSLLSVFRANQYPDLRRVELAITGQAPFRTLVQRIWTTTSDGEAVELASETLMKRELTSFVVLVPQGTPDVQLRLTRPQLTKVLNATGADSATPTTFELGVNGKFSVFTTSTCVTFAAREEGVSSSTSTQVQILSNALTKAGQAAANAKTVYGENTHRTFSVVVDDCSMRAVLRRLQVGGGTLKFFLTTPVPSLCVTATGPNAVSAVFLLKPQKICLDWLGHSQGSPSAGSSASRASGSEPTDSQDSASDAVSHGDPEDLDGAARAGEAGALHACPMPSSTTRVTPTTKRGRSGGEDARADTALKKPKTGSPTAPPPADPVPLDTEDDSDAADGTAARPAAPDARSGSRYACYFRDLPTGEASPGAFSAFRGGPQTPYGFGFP

B1: peptide E mutant L35A (peptide)
peptide: ATAEETRRMLHRAFDTAA
B2: peptide E mutant R25A (peptide)
peptide: ATAEETARMLHRAFDTLA
B3: peptide E mutant F32A (peptide)
peptide: ATAEETRRMLHRAADTLA
B4: peptide E mutant R30A (peptide)
peptide: ATAEETRRMLHAAFDTLA
B5: peptide E mutant H29A (peptide)
peptide: ATAEETRRMLARAFDTLA
B6: peptide E mutant T20A (peptide)
peptide: AAAEETRRMLHRAFDTLA
B7: peptide E mutant M27A (peptide)
peptide: ATAEETRRALHRAFDTLA
B8: peptide E mutant T24A (peptide)
peptide: ATAEEARRMLHRAFDTLA
B9: peptide E mutant E22A (peptide)
peptide: ATAAETRRMLHRAFDTLA
B10: peptide E mutant L28A (peptide)
peptide: ATAEETRRMAHRAFDTLA
B11: peptide E mutant T34A (peptide)
peptide: ATAEETRRMLHRAFDALA
B12: peptide E mutant R26A (peptide)
peptide: ATAEETRAMLHRAFDTLA
B13: peptide E mutant D33A (peptide)
peptide: ATAEETRRMLHRAFATLA
B14: peptide E mutant E23A (peptide)
peptide: ATAEATRRMLHRAFDTLA
B15: Peptide E (last 18 residues of HSV DNA polymerase, Pol residues 1218-1235) (peptide)
peptide: ATAEETRRMLHRAFDTLA
B16: Peptide A (C-terminal 36 amino acid residues of HSV DNA polymerase, Pol residues 1200-1235) (peptide)
peptide: DDVAARLRAAGFGAVGAGATAEETRRMLHRAFDTLA

In one assay the target is T1, HSV UL42 (processivity factor of HSV …). As to the kind of experiment: cell-based or functional assay.
As for B1, the “inhibition of long-chain DNA synthesis at 100 µM” value (“inhibition … at 100 µM” for short) turned out to be 50 % inhibition at 100 µM. For the molecule B2, the “IC50 relative to that of peptide E” value is 3 to 7 fold.

Consider B3, for which the “inhibition … at 100 µM” value was less than 20 % inhibition at 100 µM.

Turning to B4, the “inhibition … at 100 µM” value was less than 20 % inhibition at 100 µM. The same measure, in the same setting: for B5 the value was less than 20 % inhibition at 100 µM.

On to B6, for which the “inhibition … at 100 µM” value is less than 20 % inhibition at 100 µM. On the same count and under the same terms, the value for B7 was 40 % inhibition at 100 µM. With B8, the “IC50 relative to that of peptide E” value was in the range of 3 to 7 fold. In the case of B9, the “inhibition … at 100 µM” value was less than 20 % inhibition at 100 µM.

The target is the same in another assay. As to the kind of experiment: cell-based or functional assay. This is another data set of the same source.
For B1, the “IC50, inhibition of long chain DNA synthesis” value (“IC50, inhibition” for short) is 97 µM. With B2, the “IC50, inhibition” value was 40 µM. Consider B3, for which the “IC50, inhibition” value is greater than 100 µM. Still for that read-out and setting: the value for B4 was greater than 100 µM.

Consider B5, for which the “IC50, inhibition” value is greater than 100 µM. Same read-out and setting: the value for B10 was 18 µM; that for B6 was greater than 100 µM; that for B11 was 10 µM. On the same count and under the same terms, for B12 the value was 14 µM. As to B7, the “IC50, inhibition” value is greater than 100 µM. As for B8, the “IC50, inhibition” value turned out to be 77 µM. The same measure, in the same setting: the value for B13 was 50 µM.

Take B14: the “IC50, inhibition” value came to 21 µM. As for B9, the “IC50, inhibition” value is greater than 100 µM. Same read-out and setting: for B15 the value was 11 µM; for B16, 1.7 µM.

Source of the values: patent US20070055459A1 (Harvard, published 2007).
